Target: paclitaxel stabilized microtubules (UniProt P02550)
Experiment: co-sedimentation; tau 0-10 μM mixed with paclitaxel stabilized microtubules (1.6 μM tubulin dimers, 20 μM paclitaxel) in 80 mM PIPES pH 7.0, 2 mM MgCl2, 0.5 mM EGTA; 30 min at room temperature; 100,000 x g for 5 min at 23°C; tau in the pellet measured by gel densitometry or western blot; noncooperative single-site fit; unphosphorylated and GSK-3β phosphorylated tau

Chain of UniProt P02550 (P02550 whole entry, looked up): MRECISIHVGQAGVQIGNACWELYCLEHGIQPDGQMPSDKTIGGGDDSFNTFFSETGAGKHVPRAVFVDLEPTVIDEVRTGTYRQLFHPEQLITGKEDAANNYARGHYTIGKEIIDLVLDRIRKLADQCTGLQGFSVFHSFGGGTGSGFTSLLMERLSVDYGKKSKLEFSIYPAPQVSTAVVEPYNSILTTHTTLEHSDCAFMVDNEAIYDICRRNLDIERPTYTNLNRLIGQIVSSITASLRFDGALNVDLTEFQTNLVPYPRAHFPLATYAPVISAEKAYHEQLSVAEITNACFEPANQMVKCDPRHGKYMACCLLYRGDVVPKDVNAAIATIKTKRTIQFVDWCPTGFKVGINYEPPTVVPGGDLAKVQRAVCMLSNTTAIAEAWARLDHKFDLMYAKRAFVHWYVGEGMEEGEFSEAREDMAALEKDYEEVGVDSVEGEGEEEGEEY

fold decrease in microtubule affinity upon GSK-3β phosphorylation, against the unphosphorylated isoform | Substance
3 fold | GSK-3β phosphorylated tau isoform 1N4R (from UniProt P10636-7 1-412) (natural protein)
3 fold | GSK-3β phosphorylated tau isoform 1N3R (from UniProt P10636-4 1-381) (natural protein)

Source: publication PMC2683827
